From publication PMC7793260, “MreC and MreD balance the interaction between the elongasome proteins PBP2 and RodA” (PLoS Genetics, 2020)

T1: RodA (wild type), fused to mCherry or to mKO (E. coli, UniProt P0ABG7 1-370)
T1 construct: RodA, peptidoglycan glycosyltransferase of the E. coli elongasome; wild-type rodA gene; mCh-RodA in all others; also called mCh-RodA; mKO-RodA; source: E. coli LMC500, expressed from plasmid (15 uM IPTG), in fixed cells; not shown: mCherry (acceptor construct, pSAV047-RodA) or mKO (donor construct, pXL56), N-terminal, kept
T1 sequence (looked up): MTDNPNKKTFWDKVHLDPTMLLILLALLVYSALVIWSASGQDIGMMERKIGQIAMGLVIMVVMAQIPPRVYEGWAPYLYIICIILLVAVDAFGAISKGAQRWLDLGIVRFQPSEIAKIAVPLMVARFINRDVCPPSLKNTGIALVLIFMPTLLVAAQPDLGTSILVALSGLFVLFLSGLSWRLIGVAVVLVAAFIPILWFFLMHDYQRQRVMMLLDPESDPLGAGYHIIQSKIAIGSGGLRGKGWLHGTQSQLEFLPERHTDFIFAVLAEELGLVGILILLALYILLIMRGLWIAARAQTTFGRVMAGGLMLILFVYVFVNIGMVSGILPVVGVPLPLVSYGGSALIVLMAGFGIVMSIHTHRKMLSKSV

T2: mKO-PBP2^L61R (E. coli, UniProt P0AD65 1-633, L61R)
T2 construct: PBP2 of E. coli with L61R (hyperactive variant); made from pWA004 by mutagenesis PCR; also called hyperactive PBP2^L61R; source: E. coli LMC500, expressed from plasmid (15 uM IPTG), in fixed cells; not shown: mKO, N-terminal, kept
T2 sequence (looked up): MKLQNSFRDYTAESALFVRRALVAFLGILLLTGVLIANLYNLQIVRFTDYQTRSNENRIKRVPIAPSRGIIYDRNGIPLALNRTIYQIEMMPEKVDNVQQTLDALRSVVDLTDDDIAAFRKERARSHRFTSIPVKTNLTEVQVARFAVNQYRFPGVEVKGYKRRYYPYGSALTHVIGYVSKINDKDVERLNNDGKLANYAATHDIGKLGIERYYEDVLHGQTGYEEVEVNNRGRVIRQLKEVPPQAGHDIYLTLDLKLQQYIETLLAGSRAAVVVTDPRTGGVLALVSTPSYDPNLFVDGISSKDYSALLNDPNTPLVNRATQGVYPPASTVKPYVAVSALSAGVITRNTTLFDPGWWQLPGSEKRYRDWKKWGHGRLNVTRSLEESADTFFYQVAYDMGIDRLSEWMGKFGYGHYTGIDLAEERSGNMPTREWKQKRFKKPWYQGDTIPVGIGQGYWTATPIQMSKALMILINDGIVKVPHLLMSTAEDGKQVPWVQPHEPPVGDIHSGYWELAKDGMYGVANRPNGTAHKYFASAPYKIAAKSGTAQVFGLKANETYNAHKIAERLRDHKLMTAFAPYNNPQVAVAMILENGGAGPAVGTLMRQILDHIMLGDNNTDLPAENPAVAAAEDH

B1: PBP2 (wild type), fused to mKO or to mCherry (enzyme, E. coli, UniProt P0AD65 1-633, looked up)
chain: MKLQNSFRDYTAESALFVRRALVAFLGILLLTGVLIANLYNLQIVRFTDYQTRSNENRIKLVPIAPSRGIIYDRNGIPLALNRTIYQIEMMPEKVDNVQQTLDALRSVVDLTDDDIAAFRKERARSHRFTSIPVKTNLTEVQVARFAVNQYRFPGVEVKGYKRRYYPYGSALTHVIGYVSKINDKDVERLNNDGKLANYAATHDIGKLGIERYYEDVLHGQTGYEEVEVNNRGRVIRQLKEVPPQAGHDIYLTLDLKLQQYIETLLAGSRAAVVVTDPRTGGVLALVSTPSYDPNLFVDGISSKDYSALLNDPNTPLVNRATQGVYPPASTVKPYVAVSALSAGVITRNTTLFDPGWWQLPGSEKRYRDWKKWGHGRLNVTRSLEESADTFFYQVAYDMGIDRLSEWMGKFGYGHYTGIDLAEERSGNMPTREWKQKRFKKPWYQGDTIPVGIGQGYWTATPIQMSKALMILINDGIVKVPHLLMSTAEDGKQVPWVQPHEPPVGDIHSGYWELAKDGMYGVANRPNGTAHKYFASAPYKIAAKSGTAQVFGLKANETYNAHKIAERLRDHKLMTAFAPYNNPQVAVAMILENGGAGPAVGTLMRQILDHIMLGDNNTDLPAENPAVAAAEDH
notes: PBP2, peptidoglycan transpeptidase of the E. coli elongasome, wild type; mKO-PBP2 in all others; also called mKO-PBP2^WT; mKO-PBP2; source: E. coli LMC500, expressed from plasmid (15 uM IPTG), in fixed cells; not shown: mKO (donor construct, pWA004) or mCherry (acceptor construct), N-terminal, kept

What was measured:
Assay in all cases: FRET or BRET; two-plasmid spectral FRET in E. coli LMC500 cells; mCherry fusion as acceptor, mKO fusion as donor; Gb4 medium, steady state at 28 C, 15 uM IPTG for two mass doublings, FAGA-fixed; acceptor FRET efficiency (EfA) by spectral unmixing
[1] = biological target: B1; settings: partners not purified
[2] = biological target: the molecule itself
[3] = biological target: T1, RodA (wild type), fused to mCherry or …; settings: partners not purified
mKO-PBP2^L61R = biological target: T2, mKO-PBP2^L61R; settings: partners not purified

EfA (acceptor FRET efficiency) [1]	Binder	further results
12.7%	mCh-RodA^Q207R (enzyme, E. coli, UniProt P0ABG7 1-370, looked up) MTDNPNKKTFWDKVHLDPTMLLILLALLVYSALVIWSASGQDIGMMERKIGQIAMGLVIMVVMAQIPPRVYEGWAPYLYIICIILLVAVDAFGAISKGAQRWLDLGIVRFQPSEIAKIAVPLMVARFINRDVCPPSLKNTGIALVLIFMPTLLVAAQPDLGTSILVALSGLFVLFLSGLSWRLIGVAVVLVAAFIPILWFFLMHDYRRQRVMMLLDPESDPLGAGYHIIQSKIAIGSGGLRGKGWLHGTQSQLEFLPERHTDFIFAVLAEELGLVGILILLALYILLIMRGLWIAARAQTTFGRVMAGGLMLILFVYVFVNIGMVSGILPVVGVPLPLVSYGGSALIVLMAGFGIVMSIHTHRKMLSKSV	–
12.5%	mCh-RodA^R109A (enzyme, E. coli, UniProt P0ABG7 1-370, looked up) MTDNPNKKTFWDKVHLDPTMLLILLALLVYSALVIWSASGQDIGMMERKIGQIAMGLVIMVVMAQIPPRVYEGWAPYLYIICIILLVAVDAFGAISKGAQRWLDLGIVAFQPSEIAKIAVPLMVARFINRDVCPPSLKNTGIALVLIFMPTLLVAAQPDLGTSILVALSGLFVLFLSGLSWRLIGVAVVLVAAFIPILWFFLMHDYQRQRVMMLLDPESDPLGAGYHIIQSKIAIGSGGLRGKGWLHGTQSQLEFLPERHTDFIFAVLAEELGLVGILILLALYILLIMRGLWIAARAQTTFGRVMAGGLMLILFVYVFVNIGMVSGILPVVGVPLPLVSYGGSALIVLMAGFGIVMSIHTHRKMLSKSV	–
–	B1	EfA (acceptor FRET efficiency) [2]: 9.2%
–	mCh-MreB^SW (natural protein, E. coli, UniProt P0A9X4 1-347, looked up, MreB of E. coli with mCherry inserted inside the chain (sandwich fusion); also called sandwich fusion of MreB-mCherry-MreB; source: E. coli LMC500, expressed from plasmid (15 uM IPTG), in fixed cells) MLKKFRGMFSNDLSIDLGTANTLIYVKGQGIVLNEPSVVAIRQDRAGSPKSVAAVGHDAKQMLGRTPGNIAAIRPMKDGVIADFFVTEKMLQHFIKQVHSNSFMRPSPRVLVCVPVGATQVERRAIRESAQGAGAREVFLIEEPMAAAIGAGLPVSEATGSMVVDIGGGTTEVAVISLNGVVYSSSVRIGGDRFDEAIINYVRRNYGSLIGEATAERIKHEIGSAYPGDEVREIEVRGRNLAEGVPRGFTLNSNEILEALQEPLTGIVSAVMVALEQCPPELASDISERGMVLTGGGALLRNLDRLLMEETGIPVVVAEDPLTCVARGGGKALEMIDMHGGDLFSEE	EfA (acceptor FRET efficiency) [3]: 7.2%
5.1%	mCh-MreC (natural protein, E. coli, UniProt P16926 1-367, looked up) MKPIFSRGPSLQIRLILAVLVALGIIIADSRLGTFSQIRTYMDTAVSPFYFVSNAPRELLDGVSQTLASRDQLELENRALRQELLLKNSELLMLGQYKQENARLRELLGSPLRQDEQKMVTQVISTVNDPYSDQVVIDKGSVNGVYEGQPVISDKGVVGQVVAVAKLTSRVLLICDATHALPIQVLRNDIRVIAAGNGCTDDLQLEHLPANTDIRVGDVLVTSGLGGRFPEGYPVAVVSSVKLDTQRAYTVIQARPTAGLQRLRYLLLLWGADRNGANPMTPEEVHRVANERLMQMMPQVLPSPDAMGPKLPEPATGIAQPTPQQPATGNAATAPAAPTQPAANRSPQRATPPQSGAQPPARAPGGQ	EfA (acceptor FRET efficiency) (mKO-PBP2^L61R): 5.3%
